Data as given in paper PMC6007875 (Nature, 2018).
Where a chain is given by its changes, count along the chain named. Numbers in names are those of the source.

T1: shed extracellular domain of αKlotho (αKlotho^ecto) (human, UniProt Q9UEF7 34-981)
T1 sequence (looked up): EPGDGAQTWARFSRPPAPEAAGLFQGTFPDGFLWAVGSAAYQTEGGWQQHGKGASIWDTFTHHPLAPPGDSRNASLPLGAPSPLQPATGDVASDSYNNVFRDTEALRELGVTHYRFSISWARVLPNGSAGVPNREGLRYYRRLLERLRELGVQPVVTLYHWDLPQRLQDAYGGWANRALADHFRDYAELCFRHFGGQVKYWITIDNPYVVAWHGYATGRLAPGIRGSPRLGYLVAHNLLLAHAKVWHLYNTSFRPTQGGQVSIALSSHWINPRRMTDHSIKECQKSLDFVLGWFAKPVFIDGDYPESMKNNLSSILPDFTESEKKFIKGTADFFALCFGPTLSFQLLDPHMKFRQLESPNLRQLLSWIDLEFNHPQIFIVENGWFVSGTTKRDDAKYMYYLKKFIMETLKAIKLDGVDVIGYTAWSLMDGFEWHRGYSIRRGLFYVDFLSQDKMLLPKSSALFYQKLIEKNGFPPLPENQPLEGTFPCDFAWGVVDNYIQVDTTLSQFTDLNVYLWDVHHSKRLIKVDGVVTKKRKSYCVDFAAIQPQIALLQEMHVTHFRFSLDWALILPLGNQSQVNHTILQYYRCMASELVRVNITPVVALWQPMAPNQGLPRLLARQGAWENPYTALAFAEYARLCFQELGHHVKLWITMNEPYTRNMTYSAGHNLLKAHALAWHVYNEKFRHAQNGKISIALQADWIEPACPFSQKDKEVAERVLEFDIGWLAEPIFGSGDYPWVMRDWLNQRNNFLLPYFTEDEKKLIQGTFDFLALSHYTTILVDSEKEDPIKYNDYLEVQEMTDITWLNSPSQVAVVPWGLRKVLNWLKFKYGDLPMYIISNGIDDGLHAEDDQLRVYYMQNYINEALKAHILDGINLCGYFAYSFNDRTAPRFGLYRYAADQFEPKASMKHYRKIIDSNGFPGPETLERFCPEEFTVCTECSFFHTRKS

B1: FGFR1c^ΔHBS (K160Q/K163Q), ecto (domain or fragment, human)
chain: DNTKPNRMPVAPYWTSPEQMEQKLHAVPAAKTVKFKCPSSGTPNPTLRWLKNGKEFKPDHRIGGYKVRYATWSIIMDSVVPSDKGNYTCIVENEYGSINHTYQLDVVERSPHRPILQAGLPANKTVALGSNVEFMCKVYSDPQPHIQWLKHIEVNGSKIGPDNLPYVQILKTAGVNTTDKEMEVLHLRNVSFEDAGEYTCLAGNSIGLSHHSAWLTVLEALEER
B2: FGFR1c ligand-binding domain (FGFR1c^ecto) (domain or fragment, human)
chain: B1 chain with Q19K, Q22K
B3: FGFR1c^ΔHBS’ (K207Q/R209Q), ecto (domain or fragment, human)
chain: B1 chain with Q19K, Q22K, K66Q, R68Q
B4: FGFR1c^ΔRRBS (A171D), ecto (domain or fragment, human)
chain: B1 chain with Q19K, Q22K, A30D
B5: FGFR1c^ΔSLBS (I203E), ecto (domain or fragment, human)
chain: B1 chain with Q19K, Q22K, I62E
B6: FGFR1c^ΔSLBS’ (V221D), ecto (domain or fragment, human)
chain: B1 chain with Q19K, Q22K, V80D
B7: fibroblast growth factor 23 (FGF23) (ligand, human, UniProt Q9GZV9 25-251, looked up)
chain: YPNASPLLGSSWGGLIHLYTATARNSYHLQIHKNGHVDGAPHQTIYSALMIRSEDAGFVVITGVMSRRYLCMDFRGNIFGSHYFDPENCRFQHQTLENGYDVYHSPQYHFLVSLGRAKRAFLPGMNPPPYSQFLSRRNEIPLIHFNTPIPRRHTRSAEDDSERDPLNVLKPRARMTPAPASCSQELPSAEDNSPMASDPLGVVRGGRVNTHAGGTGPEGCRPFAKFI
B8: FGF23^ΔHBS (R140A/R143A) (ligand, human, UniProt Q9GZV9 25-251, looked up)
chain: B7 chain with R116A, R119A
B9: FGF23^ΔSRBS (M149A/N150A/P151A) (ligand, human, UniProt Q9GZV9 25-251, looked up)
chain: B7 chain with M125A, N126A, P127A

Tests used:
FGFR1c (Homo sapiens) = FGFR1c (Homo sapiens) (UniProt P11362); conditions: cited from earlier work
FGFR1c (Homo sapiens), sequence (P11362 22-376): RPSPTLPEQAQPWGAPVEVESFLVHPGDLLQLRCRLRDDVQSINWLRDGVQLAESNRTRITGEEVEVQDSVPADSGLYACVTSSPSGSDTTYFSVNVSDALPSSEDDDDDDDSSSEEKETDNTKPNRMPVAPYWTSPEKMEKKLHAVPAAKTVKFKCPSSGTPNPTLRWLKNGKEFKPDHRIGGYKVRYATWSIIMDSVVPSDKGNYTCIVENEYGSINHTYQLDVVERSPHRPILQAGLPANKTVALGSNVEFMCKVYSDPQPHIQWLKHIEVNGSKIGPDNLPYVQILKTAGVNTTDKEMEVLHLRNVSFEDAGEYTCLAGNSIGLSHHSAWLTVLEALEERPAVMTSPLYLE

[1] = molecular target: T1, shed extracellular domain of αKlotho …; assay: SEC-MALS
[2] = molecular target: B9; assay: SEC-MALS
FGF23^ΔHBS (R140A/R143A) = molecular target: B8; assay: SEC-MALS
[3] = molecular target: B2; assay: SEC-MALS

Molecule | binding result [1] | further results
αKlotho (from UniProt Q9UEF7) |  | Kd (FGFR1c (Homo sapiens)): 72 nM
B1 | binds | 
B2 |  | stoichiometry N [1]: 1; binding result [2]: binds; binding result (FGF23^ΔHBS (R140A/R143A)): binds
B3 | binds | 
B4 | binds | 
B5 | binds | 
B6 | binds | 
B7 |  | stoichiometry N [3]: 1; stoichiometry N [1]: 1
B8 | binds | 
B9 | binds | 
